In patent US20220047716A1 (SUTRO BIOPHARMA, published 2022):
Positions count from the first letter of the chain named.

Biological target: human folate receptor alpha (hFOLR1) (human, UniProt P15328 25-234)
Test: cell-based or functional assay

Chain of human folate receptor alpha (hFOLR1) (P15328 25-234 limits assumed): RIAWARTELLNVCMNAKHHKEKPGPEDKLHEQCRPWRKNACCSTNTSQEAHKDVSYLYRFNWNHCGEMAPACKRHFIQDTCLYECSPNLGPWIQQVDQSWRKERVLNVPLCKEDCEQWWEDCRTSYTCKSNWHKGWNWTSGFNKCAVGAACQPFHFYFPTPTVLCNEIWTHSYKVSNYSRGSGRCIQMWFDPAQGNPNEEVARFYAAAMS

B1: SRP1848-A01 (antibody, V domains shown)
VH: EVQLVESGGGLVQPGGSLRLSCAASGFNITRYSIHWVRQAPGKGLEWVAGILPESGGTSYADSVKGRFTISADTSKNTAYLQMNSLRAEDTAVYYCARHIYPWDWFSNYVLDYWGQGTLVTVSS
VL: not shown
Igrov 2° antibody cell killing EC50: 15 pM
Igrov 2° antibody cell killing Span: 71%
KB 2° antibody cell killing EC50: 64 pM
KB 2° antibody cell killing Span: 94%

B2: SRP1848-F04 (antibody, V domains shown)
VH: EVQLVESGGGLVQPGGSLRLSCAASGFNISNYSIHWVRQAPGKGLEWVGEIYPIDGITDYADSVKGRFTISADTSKNTAYLQMNSLRAEDTAVYYCARGSWFWRSGYGYYLDYWGQGTLVTVSS
VL: not shown
Igrov 2° antibody cell killing EC50: 15 pM
Igrov 2° antibody cell killing Span: 73%
KB 2° antibody cell killing EC50: 96 pM
KB 2° antibody cell killing Span: 93%

B3: SRP1848-B04 (antibody, V domains shown)
VH: B2 VH with G26S, Y32H, I54V, S100R, W101Y, F102S, S105A, G108S
VL: not shown
Igrov 2° antibody cell killing EC50: 18 pM
Igrov 2° antibody cell killing Span: 70%
KB 2° antibody cell killing EC50: 35 pM
KB 2° antibody cell killing Span: 94%

B4: SRP1848-D07 (antibody, V domains shown)
VH: B2 VH with N31K, S33Y, E50G, Y52S, I54N, I57Y, T69A, S100F, F102A
VL: not shown
Igrov 2° antibody cell killing EC50: 32 pM
Igrov 2° antibody cell killing Span: 71%
KB 2° antibody cell killing EC50: 75 pM
KB 2° antibody cell killing Span: 94%

B5: SRP1848-C05 (antibody, V domains shown)
VH: B2 VH with S30R, N31K, E50D, Y52F, T58N, F102S, R104K, S105A
VL: not shown
Igrov 2° antibody cell killing EC50: 21 pM
Igrov 2° antibody cell killing Span: 62%
KB 2° antibody cell killing EC50: 73 pM
KB 2° antibody cell killing Span: 92%

B6: SRP1848-A08 (antibody, V domains shown)
VH: B2 VH with F27S, S30R, N31K, Y32H, E50S, I54N, I57T, S105A
VL: not shown
Igrov 2° antibody cell killing EC50: 13 pM
Igrov 2° antibody cell killing Span: 65%
KB 2° antibody cell killing EC50: 39 pM
KB 2° antibody cell killing Span: 93%

B7: SRP1848-B01 (antibody, V domains shown)
VH: B2 VH with S30R, I54V, S100F, F102S, R104P, G108S, Y110F
VL: not shown
Igrov 2° antibody cell killing EC50: 31 pM
Igrov 2° antibody cell killing Span: 82%
KB 2° antibody cell killing EC50: 64 pM
KB 2° antibody cell killing Span: 95%

B8: SRP1848-B10 (antibody, V domains shown)
VH: B2 VH with I29T, S30T, N31T, Y32K, I54R, S100G, F102H, G108S
VL: not shown
Igrov 2° antibody cell killing Span: 71%
KB 2° antibody cell killing EC50: 40 pM
KB 2° antibody cell killing Span: 97%

B9: SRP1848-C03 (antibody, V domains shown)
VH: B2 VH with S30G, N31V, I57N, F102A, G108S
VL: not shown
Igrov 2° antibody cell killing EC50: 35 pM
Igrov 2° antibody cell killing Span: 72%
KB 2° antibody cell killing EC50: 74 pM
KB 2° antibody cell killing Span: 93%

B10: SRP1848-A10 (antibody, V domains shown)
VH: B2 VH with S30R, N31K, V37A, E50D, Y52F, G56D, F102S, R104P, Y107H, G108S
VL: not shown
Igrov 2° antibody cell killing EC50: 27 pM
Igrov 2° antibody cell killing Span: 75%
KB 2° antibody cell killing EC50: 33 pM
KB 2° antibody cell killing Span: 96%

B11: SRP1848-A04 (antibody, V domains shown)
VH: B2 VH with S30D, N31Q, Y32S, E50V, I54V, I57T, S100A, F102S, L111I
VL: not shown
Igrov 2° antibody cell killing EC50: 15 pM
Igrov 2° antibody cell killing Span: 64%
KB 2° antibody cell killing EC50: 52 pM
KB 2° antibody cell killing Span: 92%

B12: SRP1848-D04 (antibody, V domains shown)
VH: B2 VH with N31H, I54R, R87S, S100Y
VL: not shown
Igrov 2° antibody cell killing EC50: 68 pM
Igrov 2° antibody cell killing Span: 77%
KB 2° antibody cell killing EC50: 380 pM
KB 2° antibody cell killing Span: 97%

B13: SRP1848-D09 (antibody, V domains shown)
VH: B2 VH with S33Y, E50G, Y52S, I54N, I57Y, F102S, S105H
VL: not shown
Igrov 2° antibody cell killing EC50: 23 pM
Igrov 2° antibody cell killing Span: 70%
KB 2° antibody cell killing EC50: 42 pM
KB 2° antibody cell killing Span: 91%

B14: SRP1848-B03 (antibody, V domains shown)
VH: B2 VH with N31M, Y32K, S33Y, E50G, Y52T, I57M, F102S, R104P, G108S
VL: not shown
Igrov 2° antibody cell killing EC50: 28 pM
Igrov 2° antibody cell killing Span: 66%
KB 2° antibody cell killing EC50: 50 pM
KB 2° antibody cell killing Span: 94%

B15: SRP1848-D05 (antibody, V domains shown)
VH: B2 VH with N31I, Y32S, S33Y, E50G, Y52S, I57Y, F102S, S105A
VL: not shown
Igrov 2° antibody cell killing Span: 73%
KB 2° antibody cell killing EC50: 55 pM
KB 2° antibody cell killing Span: 92%

B16: SRP1848-B11 (antibody, V domains shown)
VH: B2 VH with S30G, Y32N, E50D, Y52S, I57F, F102S, S105A
VL: not shown
Igrov 2° antibody cell killing EC50: 26 pM
Igrov 2° antibody cell killing Span: 74%
KB 2° antibody cell killing EC50: 58 pM
KB 2° antibody cell killing Span: 93%

B17: SRP1848-B05 (antibody, V domains shown)
VH: B2 VH with S33Y, E50G, Y52S, I57Y, V64M, N84S, R104Q
VL: not shown
Igrov 2° antibody cell killing EC50: 40 pM
Igrov 2° antibody cell killing Span: 72%
KB 2° antibody cell killing EC50: 65 pM
KB 2° antibody cell killing Span: 94%

B18: SRP1848-C10 (antibody, V domains shown)
VH: B2 VH with S30R, N31T, S33Y, E50G, Y52S, I57Y, F102S, R104P, S105A
VL: not shown
Igrov 2° antibody cell killing EC50: 36 pM
Igrov 2° antibody cell killing Span: 75%
KB 2° antibody cell killing EC50: 57 pM
KB 2° antibody cell killing Span: 96%

B19: SRP1848-A07 (antibody, V domains shown)
VH: B2 VH with S30G, N31Y, Y32H, Y52F, I54V, I57T, Q82H, S100F, F102A
VL: not shown
Igrov 2° antibody cell killing EC50: 29 pM
Igrov 2° antibody cell killing Span: 68%
KB 2° antibody cell killing EC50: 62 pM
KB 2° antibody cell killing Span: 95%

B20: SRP1848-C04 (antibody, V domains shown)
VH: B2 VH with S30R, N31H, I54G, D55P, I57N, W101L, F102S, S105A
VL: not shown
Igrov 2° antibody cell killing EC50: 16 pM
Igrov 2° antibody cell killing Span: 68%
KB 2° antibody cell killing EC50: 6 pM
KB 2° antibody cell killing Span: 94%

B21: SRP1848-B06 (antibody, V domains shown)
VH: B2 VH with S33Y, E50G, Y52T, I57Y, S100F, F102S, R104P, L111Q
VL: not shown
Igrov 2° antibody cell killing EC50: 22 pM
Igrov 2° antibody cell killing Span: 72%
KB 2° antibody cell killing EC50: 58 pM
KB 2° antibody cell killing Span: 95%

B22: SRP1848-C01 (antibody, V domains shown)
VH: EVQLVESGGGLVQPGGSLRLSCAASGFNIGNSYIHWVRQAPGKGLEWVGGVTPNDGYTDYADSVKGRFTISADTSKNTTYLQMNSLRAEDTAVYYCARGSWFWRAGYGYYLDYWGQGALVTVSS
VL: not shown
Igrov 2° antibody cell killing EC50: 23 pM
Igrov 2° antibody cell killing Span: 68%
KB 2° antibody cell killing Span: 90%

B23: SRP1848-B07 (antibody, V domains shown)
VH: EVQLVESGGGLVQPGGSLRLSCAASGFNISRFYIHWVRQAPGKGLEWVGGISPYDGFTDYADSVKGRFTISADTSKNTAYLQMNSLRAEDTAVYYCARGSWSWPAGYGYYQDYWGQGTLVTVSS
VL: not shown
Igrov 2° antibody cell killing EC50: 38 pM
Igrov 2° antibody cell killing Span: 73%
KB 2° antibody cell killing EC50: 79 pM
KB 2° antibody cell killing Span: 96%

B24: SRP1848-A06 (antibody, V domains shown)
VH: B22 VH with V51I, N54I, Y57N, T79A, S100A, F102S, A105S, L111I, A118T
VL: not shown
Igrov 2° antibody cell killing Span: 72%
KB 2° antibody cell killing EC50: 46 pM
KB 2° antibody cell killing Span: 93%

B25: SRP1848-D10 (antibody, V domains shown)
VH: B2 VH with N31R, Y32N, E50W, Y52S, I54N, I57T, T74G, S100A, F102S, L111I
VL: not shown
Igrov 2° antibody cell killing EC50: 12 pM
Igrov 2° antibody cell killing Span: 54%
KB 2° antibody cell killing EC50: 16 pM
KB 2° antibody cell killing Span: 90%

B26: SRP1848-E01 (antibody, V domains shown)
VH: B23 VH with S30T, R31N, F32K, S52T, Y54F
VL: not shown
Igrov 2° antibody cell killing EC50: 29 pM
Igrov 2° antibody cell killing Span: 72%
KB 2° antibody cell killing EC50: 88 pM
KB 2° antibody cell killing Span: 92%

B27: SRP1848-B09 (antibody, V domains shown)
VH: EVQLVESGGGLVQPGGSLRLSCAAGGFNITNYYIHWVRQAPGKGLEWVGGITPVDGYTDYADRVKGRFTISADTSKNTAYLQMNSLRAEDTAVYYCARGAWSWRSGYGYYMDYWGQGTLVTVSS
VL: not shown
Igrov 2° antibody cell killing EC50: 27 pM
Igrov 2° antibody cell killing Span: 74%
KB 2° antibody cell killing EC50: 73 pM
KB 2° antibody cell killing Span: 97%

B28: SRP1848-C07 (antibody, V domains shown)
VH: B2 VH with S30R, N31K, E50D, Y52F, V64M, F102S, R104P, S105A, L111Q
VL: not shown
Igrov 2° antibody cell killing EC50: 13 pM
Igrov 2° antibody cell killing Span: 67%
KB 2° antibody cell killing EC50: 65 pM
KB 2° antibody cell killing Span: 93%

B29: SRP1848-D02 (antibody, V domains shown)
VH: B27 VH with G25S, T30S, N31H, Y32N, V54Q, R63S, S85R, S105A, M111L
VL: not shown
Igrov 2° antibody cell killing EC50: 27 pM
Igrov 2° antibody cell killing Span: 71%
KB 2° antibody cell killing EC50: 34 pM
KB 2° antibody cell killing Span: 93%

B30: SRP1848-A09 (antibody, V domains shown)
VH: B2 VH with S30R, N31K, Y32Q, E50S, Y52F, I54N, I57T, M83V, Y110F, D112E
VL: not shown
Igrov 2° antibody cell killing EC50: 26 pM
Igrov 2° antibody cell killing Span: 71%
KB 2° antibody cell killing Span: 93%
